Reference: US20230183291A1, “ANTI-INFECTIVE BICYCLIC PEPTIDE LIGANDS” (priority 2020, published 2023)
Numbered stars: 1 amine (or outer) side, 2 acyl side, 3 side chain; on linkers, the order of the positions; unused ones are H or OH. Bridge positions count the residues as written; N and C are the ends. Square brackets hold non-standard residues; d marks the D form. Primed or numbered codes have the meaning given here. Ends that are not written are not given here. Arg(Me)′ = delta-N-methyl arginine, CN(CCC[C@H](N[*:1])C(=O)[*:2])C(=N)N; TATA = O=C(CC[*:1])N1CN(C(=O)CC[*:2])CN(C(=O)CC[*:3])C1; 1Nal = N[C@@H](Cc1cccc2ccccc12)C(=O)O; 2Nal = N[C@@H](Cc1ccc2ccccc2c1)C(=O)O; hArg = N=C(N)NCCCC[C@H](N)C(=O)O; Aib = CC(C)(N)C(=O)O; Sar = CNCC(=O)O

Assays:
[1] = target: ACE2 protein (Homo sapiens (Human)), Q9BYF1; experiment: fluorescence polarisation direct binding, 1 nM fluorescein tracer, ACE2 titrated
[2] = target: Biotinylated Human ACE2, His, Avitag protein (ACROBiosystems, AC2-H82E6) (human), Q9BYF1; experiment: SPR single cycle kinetics, ACE2 captured on CAP chip, peptide analyte; geometric mean
Chain of Biotinylated Human ACE2, His, Avitag protein (ACROBiosystems, AC2-H82E6) (human), Q9BYF1 (Q9BYF1 18-740 limits assumed): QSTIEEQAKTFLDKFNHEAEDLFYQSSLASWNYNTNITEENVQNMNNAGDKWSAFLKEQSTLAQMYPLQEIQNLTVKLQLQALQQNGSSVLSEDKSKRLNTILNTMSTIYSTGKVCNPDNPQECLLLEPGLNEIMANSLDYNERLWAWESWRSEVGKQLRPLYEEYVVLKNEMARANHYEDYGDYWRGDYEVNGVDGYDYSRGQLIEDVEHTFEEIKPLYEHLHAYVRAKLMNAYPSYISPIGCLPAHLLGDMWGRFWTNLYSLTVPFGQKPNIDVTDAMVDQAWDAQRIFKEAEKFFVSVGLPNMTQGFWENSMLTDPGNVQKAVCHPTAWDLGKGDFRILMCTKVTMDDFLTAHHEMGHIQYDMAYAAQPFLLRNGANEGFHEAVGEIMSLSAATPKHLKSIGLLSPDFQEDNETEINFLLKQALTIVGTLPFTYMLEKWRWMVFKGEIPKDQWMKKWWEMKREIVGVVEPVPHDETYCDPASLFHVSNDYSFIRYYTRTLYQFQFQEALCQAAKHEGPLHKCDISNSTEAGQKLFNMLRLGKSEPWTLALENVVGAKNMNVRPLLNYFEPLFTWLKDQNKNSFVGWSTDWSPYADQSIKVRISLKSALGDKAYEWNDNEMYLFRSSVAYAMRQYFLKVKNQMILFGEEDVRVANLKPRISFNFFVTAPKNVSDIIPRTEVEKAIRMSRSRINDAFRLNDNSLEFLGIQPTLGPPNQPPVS

Chain of ACE2 protein (Homo sapiens (Human)), Q9BYF1 (Q9BYF1 18-740 limits assumed): as above

Binder	Kd [1] [nM]	Kd [2] [nM]
ACVRSHCSSLLPRIHCA[Sar][Sar][Sar][Sar][Sar][Sar]K(fluorescein) (linker 2-7-16 via TATA) [BCY15283]	21.9	
ACAN[Aib]VLCSWARANSFCA[Sar][Sar][Sar][Sar][Sar][Sar]K(fluorescein) (linker 2-8-17 via TATA) [BCY16871]	5.8	7.7
ACNAVLCS[1Nal]ARANSFCA[Sar][Sar][Sar][Sar][Sar][Sar]K(fluorescein) (linker 2-7-16 via TATA) [BCY16866]	2.6	2.1
ACNAVLCS[2Nal]ARANSFCA[Sar][Sar][Sar][Sar][Sar][Sar]K(fluorescein) (linker 2-7-16 via TATA) [BCY16867]	50.7	
ACNAVLCSW[Aib]RANSFCA[Sar][Sar][Sar][Sar][Sar][Sar]K(fluorescein) (linker 2-7-16 via TATA) [BCY16872]	2.9	8.9
ACNAVLCSWA[hArg]ANSFCA[Sar][Sar][Sar][Sar][Sar][Sar]K(fluorescein) (linker 2-7-16 via TATA) [BCY16874]	62	4.1
ACNAVLCSWARANSFCA[Sar][Sar][Sar][Sar][Sar][Sar]K(fluorescein) (linker 2-7-16 via TATA) [BCY15423]	5.53	3.4
ACNAVLCSWA[Arg(Me)′]ANSFCA[Sar][Sar][Sar][Sar][Sar][Sar]K(fluorescein) (linker 2-7-16 via TATA) [BCY16863]		3.5
ACGRQFCHTLMPRHLCA[Sar][Sar][Sar][Sar][Sar][Sar]K(fluorescein) (linker 2-7-16 via TATA) [BCY15284]	65.5	
ACTRPWCHSLLPRATCA[Sar][Sar][Sar][Sar][Sar][Sar]K(fluorescein) (linker 2-7-16 via TATA) [BCY15285]	157	
ACHKFPCRDPQQYLFCA[Sar][Sar][Sar][Sar][Sar][Sar]K(fluorescein) (linker 2-7-16 via TATA) [BCY15288]	225	
ACAPILCRWAERQGYCA[Sar][Sar][Sar][Sar][Sar][Sar]K(fluorescein) (linker 2-7-16 via TATA) [BCY15419]	20.4	
ACLELYQCWRGKCA[Sar][Sar][Sar][Sar][Sar][Sar]K(fluorescein) (linker 2-8-13 via TATA) [BCY15420]	98.3	
ACPSQYKCWRGKCA[Sar][Sar][Sar][Sar][Sar][Sar]K(fluorescein) (linker 2-8-13 via TATA) [BCY15421]	134	
ACLEVYKCWRGKCA[Sar][Sar][Sar][Sar][Sar][Sar]K(fluorescein) (linker 2-8-13 via TATA) [BCY15422]	130	
